According to publication PMC9638933:

Columns and labels:
[1] = target: Kumin (M. tuberculosis Ku without the extended C-terminus) (M. tuberculosis); assay: SEC-MALS; 50 uM protein in 50 mM HEPES pH 8.0, 1 mM EDTA, 200 mM NaCl; Superdex 200 Increase 10/300 GL; MiniDAWN and Optilab
[2] = target: Kumin (M. tuberculosis Ku without the extended C-terminus) (M. tuberculosis); assay: BLI; Octet RED96, 37°C, 1000 rpm; biotinylated Ku (25 ug/ml) loaded on streptavidin biosensors; LigD, LIG or POL as analyte (12.5 ug/ml), 300 s association, 300 s dissociation; 1x kinetics buffer (0.1% BSA, 0.02% Tween-20, 0.05% sodium azide in PBS); grouped global fit
LigD = LigD (UniProt P9WNV3 1-759); assay: fluorescence polarization; EMSA: 50 mM Tris-HCl pH 8.0, 50 mM NaCl, 1 mM DTT, 5 mM MgCl2, 4% glycerol, 0.025 mg/ml BSA, 10 nM DNA, 30 C 20 min; FP: 10 mM Tris-HCl pH 8, 10 mM NaCl, 10% glycerol, 1 mM TCEP, 50 nM DNA, 30 C; ternary EMSA: 20 mM Tris-HCl pH 8.0, 5 mM MgCl2, 5% glycerol, 37 C; bridging: 20 mM Tris-HCl pH 7.5, 50 mM KCl, 5 mM EDTA, 1 mM DTT, 5% glycerol, 40 ug/ml BSA, room temperature; conditions: protein: recombinant; tags: His (Ni-NTA purified; pMCSG7); label: 5' 6-FAM on strand 1; blunt
KuWT [3] = target: T1, KuWT (Mycobacterium tuberculosis, UniProt P9WKD9 1-273); assay: EMSA; 5 mM Mg2+; EMSA: 50 mM Tris-HCl pH 8.0, 50 mM NaCl, 1 mM DTT, 5 mM MgCl2, 4% glycerol, 0.025 mg/ml BSA, 10 nM DNA, 30 C 20 min; FP: 10 mM Tris-HCl pH 8, 10 mM NaCl, 10% glycerol, 1 mM TCEP, 50 nM DNA, 30 C; ternary EMSA: 20 mM Tris-HCl pH 8.0, 5 mM MgCl2, 5% glycerol, 37 C; bridging: 20 mM Tris-HCl pH 7.5, 50 mM KCl, 5 mM EDTA, 1 mM DTT, 5% glycerol, 40 ug/ml BSA, room temperature; conditions: protein: recombinant; tags: His (Ni-NTA purified; pMCSG7); chain copies: 2; label: 5' 6-FAM on strand 1; blunt
T1 sequence: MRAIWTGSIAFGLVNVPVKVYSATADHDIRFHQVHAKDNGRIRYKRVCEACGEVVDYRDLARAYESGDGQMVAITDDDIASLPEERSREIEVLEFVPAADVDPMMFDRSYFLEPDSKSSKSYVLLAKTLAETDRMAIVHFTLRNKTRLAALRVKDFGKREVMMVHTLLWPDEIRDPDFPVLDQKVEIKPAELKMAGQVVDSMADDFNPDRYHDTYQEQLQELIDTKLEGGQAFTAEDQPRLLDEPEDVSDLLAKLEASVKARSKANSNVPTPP

Kumin [4] = target: T2, Kumin (Mycobacterium tuberculosis, UniProt P9WKD9 1-259); assay: as above; conditions: protein: recombinant; tags: His (Ni-NTA purified; pMCSG7); chain copies: 2; label: 5' 6-FAM on strand 1; blunt
T2 sequence: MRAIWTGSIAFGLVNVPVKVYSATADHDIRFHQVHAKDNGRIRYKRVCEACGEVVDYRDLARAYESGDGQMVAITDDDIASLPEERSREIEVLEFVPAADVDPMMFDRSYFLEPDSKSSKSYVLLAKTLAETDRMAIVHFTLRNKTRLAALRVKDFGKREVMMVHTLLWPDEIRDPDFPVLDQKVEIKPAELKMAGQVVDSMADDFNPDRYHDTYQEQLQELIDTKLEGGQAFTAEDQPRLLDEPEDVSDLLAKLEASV

Kucore [5] = target: T3, Kucore (Mycobacterium tuberculosis, UniProt P9WKD9 1-238); assay: as above; conditions: protein: recombinant; tags: His (Ni-NTA purified; pMCSG7); chain copies: 2; label: 5' 6-FAM on strand 1; blunt
T3 sequence: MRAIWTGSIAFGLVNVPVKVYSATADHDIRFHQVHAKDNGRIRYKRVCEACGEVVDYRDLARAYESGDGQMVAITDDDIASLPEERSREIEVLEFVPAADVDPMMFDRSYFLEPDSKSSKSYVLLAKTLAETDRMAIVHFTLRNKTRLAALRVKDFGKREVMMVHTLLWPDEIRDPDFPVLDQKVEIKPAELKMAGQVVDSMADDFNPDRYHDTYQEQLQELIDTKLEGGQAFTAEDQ

[6] = target: the molecule itself; assay: SEC-MALS; 50 uM protein; 50 mM HEPES pH 8.0, 1 mM EDTA, 200 mM NaCl; Superdex 200 Increase 10/300 GL
Kumin [7] = target: T2, Kumin; assay: EMSA; EMSA: 50 mM Tris-HCl pH 8.0, 50 mM NaCl, 1 mM DTT, 5 mM MgCl2, 4% glycerol, 0.025 mg/ml BSA, 10 nM DNA, 30 C 20 min; FP: 10 mM Tris-HCl pH 8, 10 mM NaCl, 10% glycerol, 1 mM TCEP, 50 nM DNA, 30 C; ternary EMSA: 20 mM Tris-HCl pH 8.0, 5 mM MgCl2, 5% glycerol, 37 C; bridging: 20 mM Tris-HCl pH 7.5, 50 mM KCl, 5 mM EDTA, 1 mM DTT, 5% glycerol, 40 ug/ml BSA, room temperature; conditions: protein: recombinant; tags: His (Ni-NTA purified; pMCSG7); chain copies: 2; label: 5' 6-FAM on strand 1; blunt
Kucore [8] = target: T3, Kucore; assay: as above; conditions: protein: recombinant; tags: His (Ni-NTA purified; pMCSG7); chain copies: 2; label: 5' 6-FAM on strand 1; blunt
KuWT [9] = target: T1, KuWT; assay: as above; conditions: protein: recombinant; tags: His (Ni-NTA purified; pMCSG7); chain copies: 2; label: 5' 6-FAM on strand 1; blunt
[10] = target: the molecule itself; assay: SEC-MALS; 50 uM protein in 50 mM HEPES pH 8.0, 1 mM EDTA, 200 mM NaCl; Superdex 200 Increase 10/300 GL; MiniDAWN and Optilab
[11] = target: T4, LigD (wildtype), Mycobacterium tuberculosis (M. tuberculosis, UniProt P9WNV3 1-759); assay: BLI; Octet RED96, 37°C, 1000 rpm; biotinylated Ku (25 ug/ml) loaded on streptavidin biosensors; LigD, LIG or POL as analyte (12.5 ug/ml), 300 s association, 300 s dissociation; 1x kinetics buffer (0.1% BSA, 0.02% Tween-20, 0.05% sodium azide in PBS); grouped global fit; conditions: both partners purified
T4 construct: The His tag is TEV-cleavable; also called wildtype LigD
T4 sequence (P9WNV3 whole entry): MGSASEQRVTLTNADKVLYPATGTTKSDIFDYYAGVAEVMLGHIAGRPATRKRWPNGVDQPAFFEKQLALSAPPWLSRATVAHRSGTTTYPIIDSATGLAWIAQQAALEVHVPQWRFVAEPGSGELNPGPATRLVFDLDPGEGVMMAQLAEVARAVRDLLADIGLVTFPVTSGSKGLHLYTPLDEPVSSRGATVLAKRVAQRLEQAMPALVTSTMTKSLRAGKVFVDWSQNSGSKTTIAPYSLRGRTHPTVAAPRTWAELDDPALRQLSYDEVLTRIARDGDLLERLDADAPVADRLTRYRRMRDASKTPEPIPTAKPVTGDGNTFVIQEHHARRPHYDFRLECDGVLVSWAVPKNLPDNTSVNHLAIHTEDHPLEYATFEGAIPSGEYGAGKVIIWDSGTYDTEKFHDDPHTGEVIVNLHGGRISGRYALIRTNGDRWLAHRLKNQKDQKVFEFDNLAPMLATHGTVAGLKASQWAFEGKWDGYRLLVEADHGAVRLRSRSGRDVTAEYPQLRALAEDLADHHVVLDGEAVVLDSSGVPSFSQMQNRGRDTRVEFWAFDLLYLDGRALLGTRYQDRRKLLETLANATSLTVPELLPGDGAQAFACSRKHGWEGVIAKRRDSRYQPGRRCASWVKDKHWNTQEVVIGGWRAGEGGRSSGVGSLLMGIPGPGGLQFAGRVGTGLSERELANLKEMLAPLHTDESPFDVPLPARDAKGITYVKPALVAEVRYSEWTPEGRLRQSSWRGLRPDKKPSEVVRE

LigD, sequence (P9WNV3 whole entry): as above

Kumin (M. tuberculosis Ku without the extended C-terminus) (domain or fragment)
stoichiometry N [1]: 2

LigD (wildtype), Mycobacterium tuberculosis (from UniProt P9WNV3 1-759) (enzyme)
Kd [2]: 288 nM

B1: 30 bp dsDNA (dsDNA)
DNA 1: CAGGAGGTGTAGGGAAGGGAATGTTGTCTG
DNA 2: CAGACAACATTCCCTTCCCTACACCTCCTG
binding result (LigD): binds | Kd (KuWT [3]): 1180 ± 90 nM

B2: 20 bp dsDNA (dsDNA)
DNA 1: CAGGAAGGGAATGTTGTCTG
DNA 2: CAGACAACATTCCCTTCCTG
binding result (LigD): binds | binding result (Kumin [4]): binds | binding result (Kucore [5]): binds | binding result (KuWT [3]): binds

B3: Mycobacterium tuberculosis Ku, wildtype (natural protein)
chain: T1 sequence
notes: The His tag is TEV-cleavable (pMCSG7) and no cleavage is described; also called KuWT
stoichiometry N [6]: 2

B4: 10 bp dsDNA (dsDNA)
DNA 1: CAGGAAGGTG
DNA 2: CACCTTCCTG
binding result (Kumin [7]): no binding | binding result (Kucore [8]): no binding | binding result (KuWT [9]): no binding | Kd (LigD): 1100 ± 70 nM

B5: Mycobacterium tuberculosis Kumin (extended C-terminus removed) (domain or fragment)
chain: T2 sequence
modifications: in BLI only: biotin (NHS-LC-Biotin) on K19, K37, K45, K117, K120, K127, K154, K184, K188, K193, K226, K254
notes: Ku of M. tuberculosis, UniProt P9WKD9, residues 1-259 (core domain and minimal C-terminal region); The His tag is TEV-cleavable (pMCSG7) and no cleavage is described; The protein was not biotinylated for SEC-MALS
stoichiometry N [6]: 2

B6: Mycobacterium tuberculosis Kucore (entire C-terminus removed) (domain or fragment)
chain: T3 sequence
modifications: in BLI only: biotin (NHS-LC-Biotin) on K19, K37, K45, K117, K120, K127, K154, K158, K184, K188, K193, K226
notes: Ku of M. tuberculosis, UniProt P9WKD9, residues 1-238 (core domain); The His tag is TEV-cleavable (pMCSG7) and no cleavage is described; The protein was not biotinylated for SEC-MALS; also called Ku core domain
stoichiometry N [6]: 2

B7: Ku_(core) (M. tuberculosis Ku core domain, entire C-terminus removed) (domain or fragment)
chain: T3 sequence
modifications: biotinylated at multiple sites with NHS-LC-Biotin for BLI only (sites listed in Supplementary Table S3)
stoichiometry N [10]: 2 | Kd [11]: 200 nM

B8: 15 bp dsDNA (dsDNA)
DNA 1: CAGGAAGGGAATGTT
DNA 2: AACATTCCCTTCCTG
binding result (LigD): binds | Kd (KuWT [3]): 1630 ± 300 nM
